The text below walks through data of patent US20190077883A1.

Test [1] concerns the target GST-tagged human FcRn (human; Schistosoma japonicum) (UniProt P55899). Description: ELISA pH 6.0, h9C12 variant captured on AdV5 hexon, GST-hFcRn detected with anti-GST-HRP. (ELISA stands for enzyme-linked immunosorbent assay.)
The target of test [2] is Monomeric His-tagged human FcRn (human) (UniProt P55899). The test is described as follows: SPR Biacore 3000, IgG immobilised, monomeric hFcRn injected, pH 6.0, 1:1 Langmuir. For orientation: SPR reads the build-up and loss of mass on a sensor chip optically.
Test [3] shares this target. The test is described as follows: SPR Biacore 3000, pH 6.0, KD against IgG1 WT.
Test [4] shares this target. Description: SPR Biacore 3000, IgG immobilised, monomeric hFcRn injected, pH 7.4.
In test [5] the target is recombinant human FcRn (SPR of Example 2) (human) (UniProt P55899). The test is described as follows: SPR Biacore T200, IgG immobilised, hFcRn 1000.0-15.6 nM injected, pH 6.0, 25 C, 1:1 Langmuir.
The target is the same in test [6]. Description: SPR Biacore T200, pH 6.0, KD against IgG1-WT.

As a reminder, the Kd is the concentration at which binding is half-saturated. In general, koff refers to the first-order rate constant of dissociation.

Chain of GST-tagged human FcRn (human; Schistosoma japonicum) (P55899 24-297, chain 1 of 2): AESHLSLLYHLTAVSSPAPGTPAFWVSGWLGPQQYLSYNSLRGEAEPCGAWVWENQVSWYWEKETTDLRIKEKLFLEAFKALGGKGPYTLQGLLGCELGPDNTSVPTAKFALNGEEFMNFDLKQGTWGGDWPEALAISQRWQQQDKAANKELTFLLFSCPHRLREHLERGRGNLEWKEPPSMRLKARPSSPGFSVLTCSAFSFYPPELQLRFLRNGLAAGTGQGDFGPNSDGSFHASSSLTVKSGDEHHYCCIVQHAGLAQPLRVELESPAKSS
Chain of GST-tagged human FcRn (human; Schistosoma japonicum) (P61769 21-119, chain 2 of 2, further chain): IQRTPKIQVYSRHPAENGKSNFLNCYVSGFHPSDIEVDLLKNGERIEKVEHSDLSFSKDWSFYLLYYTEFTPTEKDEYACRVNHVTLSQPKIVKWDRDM
Chain of recombinant human FcRn (SPR of Example 2) (human) (P55899 24-290 limits assumed, form in doubt): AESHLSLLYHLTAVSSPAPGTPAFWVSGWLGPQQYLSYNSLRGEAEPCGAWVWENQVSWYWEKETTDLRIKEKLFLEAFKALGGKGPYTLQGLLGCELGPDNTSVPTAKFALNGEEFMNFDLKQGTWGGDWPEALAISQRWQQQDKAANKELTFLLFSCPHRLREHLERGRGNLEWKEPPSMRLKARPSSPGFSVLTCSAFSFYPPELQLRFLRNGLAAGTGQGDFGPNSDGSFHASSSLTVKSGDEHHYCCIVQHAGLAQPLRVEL
Chain of Monomeric His-tagged human FcRn (human) (P55899 24-290 limits assumed, form in doubt): as above

On to “h9C12 IgG1-L309K/Q311R/N434W/M428E (antibody)”, for which the Fold change from WT (ELISA) pH 6.0 in test [1] came to 6 fold.
For the substance “h9C12 IgG1-L309R/Q311R/N434W/M428E (antibody)”, the Fold change from WT (ELISA) pH 6.0 in test [1] turned out to be 6 fold.
Same read-out and setting: in the case of “h9C12 IgG1-L309S/Q311R/N434W/M428E (antibody)” it was 6 fold; in that of “h9C12 IgG1-M252S/Q311R/N434W/M428E (antibody)”, 6 fold.
Consider h9C12 IgG1-M252Y/S254T/T256E (antibody), for which, in test [2], the Kd turned out to be 93 nM and the off-rate (koff) turned out to be 0.0078 s⁻¹. The same substance yielded a Fold change from WT in test [3] of 8.4 fold.
Take h9C12 IgG1-N434W (antibody): the equilibrium dissociation constant (Kd) in test [2] was 14.8 nM; in test [4] it was 1980 nM. The substance also registered an off-rate constant (koff) in test [2] of 0.0032 s⁻¹. Also, the Fold change from WT in test [3] was 52.9 fold.
In test [2], h9C12 IgG1-Q311R (antibody) had a Kd of 687 nM and an off-rate (koff) of 0.0572 s⁻¹. For the same substance, the Fold change from WT in test [3] stood at 1.1 fold.
Regarding h9C12 IgG1-Q311R/N434P/M428E (antibody), in test [5], the Kd worked out at 24.2 nM and the koff stood at 0.0405 s⁻¹. In addition, the Fold change from WT (KD) pH 6.0 in test [6] is 11.3 fold. Further, the Fold change from WT (ELISA) pH 6.0 in test [1] came out at 3 fold.
As for h9C12 IgG1-Q311R/N434W (antibody), in test [2], the dissociation constant Kd was 22.3 nM and the off-rate (koff) stood at 0.0036 s⁻¹. This substance also returned a Fold change from WT in test [3] of 35.1 fold.
As to h9C12 IgG1-Q311R/N434W/M428D (antibody), in test [5], the Kd turned out to be 29.4 nM and the koff worked out at 0.0312 s⁻¹. In addition, the Fold change from WT (KD) pH 6.0 in test [6] was 9.28 fold. In test [1], this substance had a Fold change from WT (ELISA) pH 6.0 of 3 fold.
In the case of h9C12 IgG1-Q311R/N434W/M428E (antibody), in test [2], the Kd turned out to be 38.5 nM and the koff is 0.005 s⁻¹. In addition, the Fold change from WT in test [3] stood at 20.3 fold. In test [5], the dissociation constant Kd turned out to be 9.3 nM and the koff was 0.0111 s⁻¹. In addition, the Fold change from WT (KD) pH 6.0 in test [6] was found to be 29.3 fold. This substance registered a Fold change from WT (ELISA) pH 6.0 in test [1] of 6 fold.
Take “h9C12 IgG1-Q311R/N434W/M428E/H433K (antibody)”: in test [1], the Fold change from WT (ELISA) pH 6.0 was found to be 9 fold.
